Measurements: patent US20230235039A1
Substitutions are numbered along the chain they refer to.

Legend:
[1] = target: human recombinant IL-5 protein with a histidine tag at carboxyl terminal (human) (UniProt P05113); test: cell-based or functional assay
[2] = target: human recombinant IL-5 protein with a histidine tag at carboxyl terminal (human) (UniProt P05113); test: BLI (Octet 96), binding molecule on sensor, IL-5 antigen 200 nM and 2-fold dilutions
[3] = target: IL-5 protein (Novoprotein, Cat #CS 33) (human) (UniProt P05113); test: indirect ELISA on IL-5 protein, antibody titrated, OD450

B1: Tab1 (control antibody 1), mepolizumab (antibody, INN chains, looked up, V domains shown)
VH: QVTLRESGPALVKPTQTLTLTCTVSGFSLTSYSVHWVRQPPGKGLEWLGVIWASGGTDYNSALMSRLSISKDTSRNQVVLTMTNMDPVDTATYYCARDPPSSLLRLDYWGRGTPVTVSS
VL: DIVMTQSPDSLAVSLGERATINCKSSQSLLNSGNQKNYLAWYQQKPGQPPKLLIYGASTRESGVPDRFSGSGSGTDFTLTISSLQAEDVAVYYCQNVHSFPFTFGGGTKLEIK
Q: B1 was tested. Which EC50 for neutralizing IL-5-induced TF-1 cell proliferation [1] did it give?
A: 0.234

Q: And the Kd [2]?
A: 0.99 nM

Q: What about the koff [2] of the same binder?
A: 8.22e-05 s⁻¹

Q: And the kon [2]?
A: 82600 M⁻¹ s⁻¹

B2: Fc fusion protein of anti-IL-5 single-domain antibody 3G12 (Fc fusion, not shown: a dimerising Fc or GST)
chain (part 1 of 2): QVQLVESGGGSVQAGGSLRLSCVASGLTLNDVSMAWFRQAPGKEREEVAGIDIDGLISYADSVKGRFTISKDNAQNTLYLQMNSLKPEDTAMYSCAAVRLYFSSSRNQYKYEGQGTQVTVSS
chain (part 2 of 2): HHHHHH
Q: With B2 as the binder, how does the EC50 for neutralizing IL-5-induced TF-1 cell proliferation [1] read?
A: 2.09

B3: Fc fusion protein of anti-IL-5 single-domain antibody 4B12 (Fc fusion, not shown: a dimerising Fc or GST)
chain (part 1 of 2): QVQLVESGGGSVQPGGSLRLSCAASGNTFSFSTYCMGWFRQSPGKEREGSLATIYDGSTAYAGSVKGRFTVSVDNAKNILYLQMNNLKPEDTAMYYCASAKYCMFWSDPSYWGQGTQVTVSS
chain (part 2 of 2): HHHHHH
Q: B3 was tested. Which EC50 for neutralizing IL-5-induced TF-1 cell proliferation [1] did it give?
A: 0.196

B4: Fc fusion protein of anti-IL-5 single-domain antibody 4C3 (Fc fusion, not shown: a dimerising Fc or GST)
chain (part 1 of 2): B2 chain (part 1 of 2) with S62P, L78M
chain (part 2 of 2): HHHHHH
Q: How did the EC50 for neutralizing IL-5-induced TF-1 cell proliferation [1] turn out when B4 was run?
A: 4.4

B5: Fc fusion protein of anti-IL-5 single-domain antibody 4D5 (Fc fusion, not shown: a dimerising Fc or GST)
chain (part 1 of 2): B3 chain (part 1 of 2) with P14A, F31T, V71I, S99A
chain (part 2 of 2): HHHHHH
Q: Which EC50 for neutralizing IL-5-induced TF-1 cell proliferation [1] does the source give for B5 here?
A: 0.427

B6: Fc fusion protein of anti-IL-5 single-domain antibody 4G8 (Fc fusion, not shown: a dimerising Fc or GST)
chain (part 1 of 2): QVQLVESGGGSVQAGGSLRLSCAASGITSSTSCMGWFRQSPGKEREGSLATIYDGAISYADSVKGRFTISVDNAKNILYLQMNNLKPEDTAMYYCAAAKYCMFWSDPSYWGQGTQVTVSS
chain (part 2 of 2): HHHHHH
Q: B6 was tested. Which EC50 for neutralizing IL-5-induced TF-1 cell proliferation [1] did it give?
A: 0.176

B7: Fc fusion protein of anti-IL-5 single-domain antibody 4H2 (Fc fusion, not shown: a dimerising Fc or GST)
chain (part 1 of 2): B6 chain (part 1 of 2) with G8E, A24V, S32A, A56S
chain (part 2 of 2): HHHHHH
Q: Which EC50 for neutralizing IL-5-induced TF-1 cell proliferation [1] does the source give for B7 here?
A: 0.189

B8: humanized Fc-fused single-domain antibody 1B3-V1 (Fc fusion, not shown: a dimerising Fc or GST)
chain (part 1 of 2): QVQLVESGGGLVQPGGSLRLSCAASGITASTSCMGWFRQAPGKGLEAVAATIYDGSTYYADSVKGRFTISRDNSKNTLYLQMNSLRAEDTAVYYCAAARYCMFWSHPSYWGQGTLVTVSS
chain (part 2 of 2): HHHHHH
Q: How did the EC50 for neutralizing IL-5-induced TF-1 cell proliferation [1] turn out when B8 was run?
A: 2.82

B9: humanized Fc-fused single-domain antibody 1B3-V3 (Fc fusion, not shown: a dimerising Fc or GST)
chain (part 1 of 2): B6 chain (part 1 of 2) with S29A, G55A, A56S, I57T, K99R, D106H
chain (part 2 of 2): HHHHHH
Q: Which EC50 for neutralizing IL-5-induced TF-1 cell proliferation [1] does the source give for B9 here?
A: 0.219

B10: Tab2 (control antibody 2), reslizumab (antibody, INN chains, looked up, V domains shown)
VH: EVQLVESGGGLVQPGGSLRLSCAVSGLSLTSNSVNWIRQAPGKGLEWVGLIWSNGDTDYNSAIKSRFTISRDTSKSTVYLQMNSLRAEDTAVYYCAREYYGYFDYWGQGTLVTVSS
VL: DIQMTQSPSSLSASVGDRVTITCLASEGISSYLAWYQQKPGKAPKLLIYGANSLQTGVPSRFSGSGSATDYTLTISSLQPEDFATYYCQQSYKFPNTFGQGTKVEVK
Q: B10 was tested. Which EC50 for neutralizing IL-5-induced TF-1 cell proliferation [1] did it give?
A: 0.0664

Q: What about the EC50 (read off the curve) [3] of the same binder?
A: 0.8 nM

B11: humanized Fc-fused single-domain antibody 1B3-V4 (Fc fusion, not shown: a dimerising Fc or GST)
chain (part 1 of 2): B6 chain (part 1 of 2) with S29A, G55A, A56S, I57T, V71R, K86R, P87A, M92V, K99R, D106H
chain (part 2 of 2): HHHHHH
Q: How did the EC50 for neutralizing IL-5-induced TF-1 cell proliferation [1] turn out when B11 was run?
A: 0.237

B12: humanized Fc-fused single-domain antibody 1B3-V5 (Fc fusion, not shown: a dimerising Fc or GST)
chain (part 1 of 2): B6 chain (part 1 of 2) with S29A, A56S, I57T, V71R, A74S, K86R, P87A, M92V, K99R, D106H
chain (part 2 of 2): HHHHHH
Q: For B12, which EC50 for neutralizing IL-5-induced TF-1 cell proliferation [1] is on record?
A: 0.274

B13: Fc fusion protein of anti-IL-5 single-domain antibody 1B8 (Fc fusion, not shown: a dimerising Fc or GST)
chain (part 1 of 2): B6 chain (part 1 of 2) with S29A, A56S, I57T, R66Q, D106H
chain (part 2 of 2): HHHHHH
Q: With B13 as the binder, how does the EC50 for neutralizing IL-5-induced TF-1 cell proliferation [1] read?
A: 0.175

B14: Fc fusion protein of anti-IL-5 single-domain antibody 1F4 (Fc fusion, not shown: a dimerising Fc or GST)
chain (part 1 of 2): QVQLVESGGGSAQAGGSLRLSCAASGNTLDLMAWFRQAPGKEREGVAGIYSSGTTYYADSVKGRFTVSRDNAKNTVYLQMNSLKPEDAAMYYCAAKVSWYGRWYQSETYEYWGQGTQVTVSS
chain (part 2 of 2): HHHHHH
Q: With B14 as the binder, how does the EC50 for neutralizing IL-5-induced TF-1 cell proliferation [1] read?
A: 0.1

B15: Fc fusion protein of anti-IL-5 single-domain antibody 2F7 (Fc fusion, not shown: a dimerising Fc or GST)
chain (part 1 of 2): B6 chain (part 1 of 2) with S29A, A56S, I57T, E88A, D106H
chain (part 2 of 2): HHHHHH
Q: With B15 as the binder, how does the EC50 for neutralizing IL-5-induced TF-1 cell proliferation [1] read?
A: 0.15

B16: Fc fusion protein of anti-IL-5 single-domain antibody 2G6 (Fc fusion, not shown: a dimerising Fc or GST)
chain (part 1 of 2): B6 chain (part 1 of 2) with A56N
chain (part 2 of 2): HHHHHH
Q: Which EC50 for neutralizing IL-5-induced TF-1 cell proliferation [1] does the source give for B16 here?
A: 0.188
